Substitutions are numbered along the chain they refer to. Numbers in names are those of the source.

Experimental findings from paper PMC13220886 (Science Advances, 2026) are described below.

The target in one data set is T1, sfCHT (Salimicrobium flavidum, UniProt A0A1N7IZC0).
T1 construct: gene SAMN05421687_10333; full length, C-terminal 3C-His10 tag (cut by 3C for cryo-EM), E. coli BL21; monomer in DDM or E. coli polar lipid proteoliposomes; residues 22-69 and 81-543 built
Kind of data set: inhibition of [3H]-choline uptake into proteoliposomes. The class given is biochemical. Conditions: 1 μM HC-3, 1 μM choline, 137 mM NaCl, pH 7.4, room temperature.

Substrate in data set [1]: C[N+](C)(C)CCO
Description: [3H]-choline uptake, saturation kinetics in transfected HeLa cells. The class given is cell-based, Homo sapiens. The conditions noted are these: pH 7.4, 137 mM NaCl, room temperature, 2 min, LV/AA background, labelled compound. From the text: [3H]-choline uptake, saturation kinetics in transfected HeLa cells on CHT1 (endocytosis-resistant CHT1-LV/AA, called WT CHT1)

T1 sequence (A0A1N7IZC0 entry or part of it): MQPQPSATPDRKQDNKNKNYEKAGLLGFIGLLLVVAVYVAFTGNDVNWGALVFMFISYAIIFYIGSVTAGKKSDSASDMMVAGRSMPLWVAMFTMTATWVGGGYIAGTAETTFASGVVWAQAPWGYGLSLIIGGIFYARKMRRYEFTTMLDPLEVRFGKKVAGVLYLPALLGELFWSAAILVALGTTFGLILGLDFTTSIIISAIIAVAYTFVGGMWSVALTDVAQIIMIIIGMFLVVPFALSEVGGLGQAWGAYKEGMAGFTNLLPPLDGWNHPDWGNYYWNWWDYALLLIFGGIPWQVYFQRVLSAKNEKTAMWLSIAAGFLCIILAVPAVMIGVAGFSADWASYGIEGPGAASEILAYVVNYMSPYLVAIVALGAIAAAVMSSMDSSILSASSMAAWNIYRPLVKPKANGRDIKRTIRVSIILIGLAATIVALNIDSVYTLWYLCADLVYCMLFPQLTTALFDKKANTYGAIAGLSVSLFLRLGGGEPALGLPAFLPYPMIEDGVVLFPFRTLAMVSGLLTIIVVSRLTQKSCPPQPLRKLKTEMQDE

`C[N+]1(C)CCOC(O)(c2ccc(-c3ccc(C4(O)C[N+](C)(C)CCO4)cc3)cc2)C1` (stereo not drawn) [HC-3]: the “uptake at 1 μM HC-3” value at sfCHT is given as “selectively suppressed Na^+-dependent uptake but had no effect in Na^+-free conditions”.

B1: CHT1 (endocytosis-resistant CHT1-LV/AA, called WT CHT1) (Homo sapiens; L531A/S263A/V532A) (protein)
chain: MAFHVEGLIAIIVFYLLILLVGIWAAWRTKNSGSAEERSEAIIVGGRDIGLLVGGFTMTATWVGGGYINGTAEAVYVPGYGLAWAQAPIGYSLSLILGGLFFAKPMRSKGYVTMLDPFQQIYGKRMGGLLFIPALMGEMFWAAAIFSALGATISVIIDVDMHISVIISALIATLYTLVGGLYSVAYTDVVQLFCIFVGLWISVPFALSHPAVADIGFTAVHAKYQKPWLGTVDSSEVYSWLDSFLLLMLGGIPWQAYFQRVLASSSATYAQVLSFLAAFGCLVMAIPAILIGAIGASTDWNQTAYGLPDPKTTEEADMILPIVLQYLCPVYISFFGLGAVSAAVMSSADSSILSASSMFARNIYQLSFRQNASDKEIVWVMRITVFVFGASATAMALLTKTVYGLWYLSSDLVYIVIFPQLLCVLFVKGTNTYGAVAGYVSGLFLRITGGEPYLYLQPLIFYPGYYPDDNGIYNQKFPFKTLAMVTSFLTNICISYLAKYLFESGTLPPKLDVFDAVVARHSEENMDKTIAAKNENIKLDELALVKPRQSMTLSSTFTNKEAFLDVDSSPEGSGTEDNLQ
notes: full length; transient transfection, HeLa cells
Consider B1, for which, in data set [1], the Km is 14.60 ± 2.03 µM and the Vmax came out at 0.000659 µmol/min/mg.

B2: CHT1 (endocytosis-resistant CHT1-LV/AA, called WT CHT1) (Homo sapiens; L531A/V532A/Y91F) (protein)
chain: B1 chain with Y91F, A263S
notes: as for B1
B2: in data set [1], the Km was 22.23 ± 1.91 µM and the maximal velocity (Vmax) is 0.000353 µmol/min/mg.

B3: CHT1 (endocytosis-resistant CHT1-LV/AA, called WT CHT1) (Homo sapiens; L531A/V532A/W406F) (protein)
chain: B1 chain with A263S, W406F
notes: as for B1
In the case of B3, in data set [1], the Km stood at 357.60 ± 99.13 µM and the Vmax is 0.000543 µmol/min/mg.

B4: CHT1 (endocytosis-resistant CHT1-LV/AA, called WT CHT1) (Homo sapiens; L531A/V532A) (protein)
chain: B1 chain with A263S
notes: as for B1
For B4, in data set [1], the Km was 12.17 ± 1.06 µM and the Vmax was determined as 0.00118 µmol/min/mg.

B5: CHT1 (endocytosis-resistant CHT1-LV/AA, called WT CHT1) (Homo sapiens; L531A/V532A/W62F) (protein)
chain: B1 chain with W62F, A263S
notes: as for B1
In the case of B5, in data set [1], the Km came out at 401.72 ± 32.24 µM and the Vmax turned out to be 0.000627 µmol/min/mg.

B6: CHT1 (endocytosis-resistant CHT1-LV/AA, called WT CHT1) (Homo sapiens; L531A/V532A/W141F) (protein)
chain: B1 chain with W141F, A263S
notes: as for B1
Regarding B6, in data set [1], the Km turned out to be 270.81 ± 14.66 µM and the Vmax was found to be 0.000588 µmol/min/mg.

B7: CHT1 (endocytosis-resistant CHT1-LV/AA, called WT CHT1) (Homo sapiens; L531A/Q259A/V532A) (protein)
chain: B1 chain with Q259A, A263S
notes: as for B1
In the case of B7, in data set [1], the Km was determined as 10.08 ± 1.50 µM and the Vmax is 0.000387 µmol/min/mg.

Broadly, the Km is the concentration of substrate that gives half-maximal velocity. Usually Vmax stands for the rate approached at saturating substrate.
